Data: US20200339648A1 (University of Washington, published 2020)

Legend:
[1] = target: T1, mouse IL-2 receptor βγc heterodimer (mIL-2Rβγc), soluble (mouse, UniProt P16297 27-240; P34902 23-263, biotin on the C-terminal biotin acceptor peptide); assay: SPR, equilibrium titration; IL-2Rγ on streptavidin chip, saturating IL-2Rβ in solution
T1 construct: extracellular domain; also called MmIL-2Rβγc; mIL-2Rβνc
T1 sequence 1: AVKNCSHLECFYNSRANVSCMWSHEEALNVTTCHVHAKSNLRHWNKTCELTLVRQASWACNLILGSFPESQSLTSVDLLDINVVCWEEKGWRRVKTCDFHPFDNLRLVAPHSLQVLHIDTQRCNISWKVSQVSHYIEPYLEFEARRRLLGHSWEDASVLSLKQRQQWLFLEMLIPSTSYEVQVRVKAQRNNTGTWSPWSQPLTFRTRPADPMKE
T1 sequence 2: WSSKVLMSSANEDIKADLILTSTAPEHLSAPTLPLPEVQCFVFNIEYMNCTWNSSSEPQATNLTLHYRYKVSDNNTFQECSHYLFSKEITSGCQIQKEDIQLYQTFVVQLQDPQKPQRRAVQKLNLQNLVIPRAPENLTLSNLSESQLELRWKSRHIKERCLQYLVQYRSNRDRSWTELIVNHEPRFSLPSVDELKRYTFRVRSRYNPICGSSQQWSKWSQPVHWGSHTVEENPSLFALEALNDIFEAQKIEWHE

[2] = target: T2, human IL-2 receptor βγc heterodimer (hIL-2Rβγc), soluble (human, UniProt P14784 27-240; P31785 23-254, biotin on the C-terminal biotin acceptor peptide); assay: as above
T2 construct: also called HsIL-2Rβγc; hIL-2Rβνc
T2 sequence 1: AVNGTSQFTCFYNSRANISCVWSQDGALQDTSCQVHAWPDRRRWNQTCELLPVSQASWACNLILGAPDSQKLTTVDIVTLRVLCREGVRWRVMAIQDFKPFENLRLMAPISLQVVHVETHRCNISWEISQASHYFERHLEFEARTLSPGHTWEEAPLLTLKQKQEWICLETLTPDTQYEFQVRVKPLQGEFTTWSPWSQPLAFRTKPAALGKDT
T2 sequence 2: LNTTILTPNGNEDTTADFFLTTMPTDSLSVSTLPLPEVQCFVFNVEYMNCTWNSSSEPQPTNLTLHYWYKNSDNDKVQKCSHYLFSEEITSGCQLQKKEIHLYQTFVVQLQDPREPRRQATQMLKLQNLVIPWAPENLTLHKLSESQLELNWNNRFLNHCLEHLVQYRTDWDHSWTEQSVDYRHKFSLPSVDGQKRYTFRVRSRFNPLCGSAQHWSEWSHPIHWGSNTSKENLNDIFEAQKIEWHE

B1: G2_neo2_40_1F_dsn36 (designed binder)
chain: PKKKIQLLAEHALLDALMILNIVKTNSQNAEEKLEDYASNVEVILEEIARLMESGDQKDEAEKAKRMKEWMKRIKTTASEDEQEEMANRIITLLQSWIFS
notes: E. coli, N-terminal 6xHis tag and thrombin site
Kd [1]: 568 nM | Kd [2]: 114 nM

B2: G1_neo2_40_1F (designed binder)
chain: STKKTQLLAEHALLDALMMLNLLPEPNEKLNRIITTMQSWIFTGKIDGDGAQELAKEVEELEQEHEKRGIDVEDYASNLKVILLELA
notes: also called G1_ne02_40_1F
Kd [1]: 7.9 nM | Kd [2]: 2.3 nM

B3: mouse interleukin-2 (mIL-2) (ligand, UniProt P04351 21-169, looked up)
chain: APTSSSTSSSTAEAQQQQQQQQQQQQHLEQLLMDLQELLSRMENYRNLKLPRMLTFKFYLPKQATELKDLQCLEDELGPLRHVLDLTQSKSFQLEDAENFISNIRVTVVKLKGSDNTFECQFDDESATVVDFLRRWIAFCQSIISTSPQ
notes: range 1-149; Baculovirus expression for SPR; also called MmIL-2; mouse IL-2
Kd [1]: 126 nM | Kd [2]: 8030 nM
